Test results published in patent publication US5780025A, “Compositions and methods for the synthesis and assay of enkephalinase” (Genentech, Inc., priority 1993, dated 1998).

Experiments:
Assay in all cases: Fluorometric determination of kinetic parameters for hydrolysis of substrates by enkephalinase
Type in all cases: biochemical, rat
[1] = substrate: CN(C)c1cccc2c(S(=O)(=O)NCC(=O)N[C@@H](Cc3c[nH]c4ccccc34)C(=O)NCC(=O)O)cccc12; conditions: other: fluorescence after 1 hr incubation, 1 μM to 1 mM substrate, 1 ng purified enzyme, 37° C., pH 7.4
Procedure: (§1) Fluorescence measurements were made using a Perkin Elmer, model 650-10S spectrofluorometer, equipped with a temperature controlled cell-holder, maintained at 37° C. Two procedures were used. The first combined a 50 μl solution of dansylated peptide with 50 μl of purified rat kidney enkephalinase in 50 mM, pH 7.4 HEPES buffer, containing 0.1% Tween 20, yielding a substrate concentration from 1 μM to 1 mM. After 1 hour at 37° C., 500 μl of 0.1M EDTA were added to the tubes. The 600 μl mixture was transferred into a quartz cuvette, and fluorescence measured. For dansyl-Gly-Trp-Gly, the excitation wavelength was set at 280 nm and emission at 360 nm. For the two tyrosine containing peptides, the excitation wavelength was at 277 nm and emission at 315 nm. Both slits were set at 2 nm. Known amounts of Trp-Gly and Tyr-Gly, diluted in the same mixture (100 μl HEPES, Tween 20, 500 μl EDTA), were run in parallel as standards. The fluorescence in the incubation media could thus be related to the amounts of hydrolyzed substrates. The second procedure permitted continuous monitoring of the hydrolysis of the dansylated peptides. A 500 μl solution of substrate at appropriate concentration, in 50 mM, pH 7.4 HEPES buffer containing 0.1% Tween 20 was pipetted in a quartz cuvette, and allowed to equilibrate in the cell holder of the fluorimeter at 37° C. Ten μl of purified rat kidney enkephalinase was added and the increase in tryptophan or tyrosine fluorescence was continuously monitored (excitation=280 nm, emission=360 nm for tryptophan, excitation 277, emission 315 for tyrosine). To minimize oxidation of tryptophan the intensity of excitation was reduced by adjusting the fluorimeter shutter so that a 10^-4 M solution of tryptophan in water gave a fluorescence of 20.0 with excitation set at 280 nm, emission at 360 nm, both slits at 2 nm, and sensitivity at 0.1. Under these conditions, tryptophan fluorescence was stable for over 2 hr.
(§2) The kinetic parameters for the hydrolysis of dansyl-Gly-Trp-Gly, dansyl-Gly-Tyr-Gly and Dansyl-Gly-Tyr-Gly-NH2 by purified rat kidney enkephalinase were measured by incubating increasing concentrations of the substrates with the enzyme and stopping the reaction by the addition of EDTA before fluorescence measurements were taken (Table 4).
(§3) Km and kcat values for substrates III, IV and V were obtained by measuring the increase in tryptophan or tyrosine fluorescence after 1 hr. incubations of increasing concentrations of substrates (from 1 μM to 1 mM) with 1 ng purified enzyme at 37° C. The kcat values for these substrates and peptides I and II were also obtained by HPLC analysis of 1 hr. incubations of 1 mM peptides with 200 ng (substrate I), 50 ng (substrates II and V), or 10 ng (substrates III and IV) enzyme. The kcat values obtained by both methods for substrates III, IV and V were in close agreement.

[2] = substrate: CN(C)c1cccc2c(S(=O)(=O)NCC(=O)N[C@@H](Cc3ccc(O)cc3)C(=O)NCC(=O)O)cccc12; conditions: other: fluorescence after 1 hr incubation, 1 μM to 1 mM substrate, 1 ng purified enzyme, 37° C., pH 7.4
Procedure: as §1, §2, §3

[3] = substrate: CC(=O)NCC(=O)N[C@@H](Cc1c[nH]c2ccccc12)C(=O)NCC(=O)O; conditions: other: peptides I and II: HPLC analysis of 1 hr incubations of 1 mM peptide with 200 ng (I) or 50 ng (II) enzyme; pH 7.4; 37.0 °C
Procedure: as §1, §2, §3

[4] = substrate: NCC(=O)N[C@@H](Cc1c[nH]c2ccccc12)C(=O)NCC(=O)O; conditions: other: peptides I and II: HPLC analysis of 1 hr incubations of 1 mM peptide with 200 ng (I) or 50 ng (II) enzyme; pH 7.4; 37.0 °C
Procedure: as §1, §2, §3

[5] = substrate: CN(C)c1cccc2c(S(=O)(=O)NCC(=O)N[C@@H](Cc3ccc(O)cc3)C(=O)NCC(N)=O)cccc12; conditions: other: fluorescence after 1 hr incubation, 1 μM to 1 mM substrate, 1 ng purified enzyme, 37° C., pH 7.4
Procedure: as §1, §2, §3

B1: purified rat kidney enkephalinase (Rattus norvegicus) (protein)
chain: MGRSESQMDITDINAPKPKKKQRWTPLEISLSVLVLLLTIIAVTMIALYATYDDGICKSSDCIKSAARLIQNMDASAEPCTDFFKYACGGWLKRNVIPETSSRYSNFDILRDELEVILKDVLQEPKTEDIVAVQKAKTLYRSCINESAIDSRGGQPLLTLLPDIYGWPVASQNWEQTYGTSWTAEKSIAQLNSKYGKKVLINFFVGTDDKNSTQHIIHFDQPRLGLPSRDYYECTGIYKEACTAYVDFMISVARLIRQEQRLPIDENQLSLEMNKVMELEKEIANATTKPEDRNDPMLLYNKMTLAKLQNNFSLEINGKPFSWSNFTNEIMSTVNINIQNEEEVVVYAPEYLTKLKPILTKYSPRDLQNLMSWRFIMDLVSSLSRNYKESRNAFRKALYGTTSETATWRRCANYVNGNMENAVGRLYVEAAFAGESKHVVEDLIAQIREVFIQTLDDLTWMDAETKKKAEEKALAIKERIGYPDDIISNENKLNNEYLELNYKEEEYFENIIQNLKFSQSKQLKKLREKVDKDEWISGAAVVNAFYSSGRNQIVFPAGILQPPFFSARQSNSLNYGGIGMVIGHEITHGFDDNGRNFNKDGDLVDWWTQQSANNFKDQSQCMVYQYGNFTWDLAGGQHLNGINTLGENIADNGGIGQAYRAYQNYVKKNGEEKLLPGLDLNHKQLFFLNFAQVWCGTYRPEYAVNSIKTDVHSPGNFRIIGTLQNSAEFADAFHCRKNSYMNPERKCRVW
notes: Rat kidney enkephalinase was purified to apparent homogeneity; from tissue; host or cells: rat kidney (male rats, membrane fraction, Triton X-100 solubilised)
For B1, which Km [1] is on record?
Its Km is 30 µM.

And the kcat [1]?
Its kcat is 15 s⁻¹.

What about the kcat/Km [1] of the same protein?
The kcat/Km was 500000 M⁻¹ s⁻¹.

And the Km [2]?
Its Km is 41 µM.

What about the kcat [2] of the same protein?
Its kcat is 19.05 s⁻¹.

And the kcat/Km [2]?
Its kcat/Km is 467000 M⁻¹ s⁻¹.

What about the kcat [3] of the same protein?
Its kcat is 3.63 s⁻¹.

And the kcat [4]?
Its kcat is 0.883 s⁻¹.

And the Km [5]?
The Km was 90 µM.

What about the kcat [5] of the same protein?
The kcat was 4.13 s⁻¹.

And the kcat/Km [5]?
The kcat/Km was 50000 M⁻¹ s⁻¹.
